The values that follow come from the DeepSol protein solubility set.

The data set in a line: soluble on expression in E. coli; label from the status in PepcDB or PDB records.
Regarding “MGHHHHHHSHMKYYRRALYDKFVHFYLVISDDGSSEAQLRGKMGGLVRKARKKISPDWPKEEQIHQLLQLFYGDWGFHCDPEDYFYARNLYLPYVFEHRQGMPVTLGAMVFYLAEALDLPIYPVNFPTQLILRAEVRDEVAFIDPWDGTYISQEKLQQLYEGAFGFGAKIQPEELDRADLSLLYSRFEQLAKNALIREEHNDMAYHYIKNLMITDAENPYHIRDRGLVLAQMGAYPSALKDLEFFVEHCPKDPTAAFIRTQLLELKGEINKDTFPLH”, the “soluble on expression in E. coli” value is given as “soluble”. The entry for “MKYIIIGLGNYGHVLAEELSTLGHEVIGADLDEGRVDSIKDKIATAFVIDATDEQSLSVLPLNSVDMVIVAIGENFGASIRVVAMLKQKQVKHIYARAIDGVHKAVLEAFGLEKILTPEEDAARSLVQLLDFGTKMETFRVDSEYYVVKFNVPEKFVGYFVNELNLDEEFNLKLIGLKRSNTIKNCLGISLVEHKVVNELPEDAKIRPDDVLVCYGKYSDFQKLWKALLEHHHHHH” is “soluble”; for “MGGIYRLSLKSTEATAERLSCDTRCNYEDRDLAYSPDGRWLAIARRFSNISEDIFIRDLASAHEKRLTQGLEDIRGLSWTPDSQALVFATEDSGSSNGFTLDINTAQIRSLDVEGMSYPSSVSAEGELVYHQYHRQFQMAYFSLGDKVPGSLFPLLYSGVSHRNPDYSPEAKRIVFVSSETGYNEIWTSDINGQKLEQLTQLKSRVAYPRWSPDGSRIAFIAPDDRNEGNRIFILDLTNKNITALASSYHNHGRPSWNWQGTAVLASTADGITEFYLDNRAPRVISSLSMAVGFAKSATELVFSRDGENGLWQINLTQPEHVEQLISTDAFRAGNNWVLTASGVYFKSSNGHEQLLNYWEASSQQVTSLLRVPRSSLSGFGSMTYIPEANRLVMTLDGFPQRDIILLKHKLLKLEHHHHHH” it is “soluble”; for “MQALKTKSNIGEMFNIQEKENGEIAISGRELHQALEVSTRYDKWFERMTEYGFENGIDFISQVEKVHGQKRARTYEQVNHILTLDTAKEIAMIQRSEPGKRARQYFIQVEKAWNSPEMIMQRALKIANNTINQLETKIERDKPKIVFADAVATTKTSILVGELAKIIKQNGINIGQRRLFEWLRQNGFLIKRKGVDYNMPTQYSMERELFEIKETSITHSDGHTSISKTPKVTGKGQQYFVNKFLGEKQTS” it is “not soluble”.

In the case of “GPGSMCKLHVKRTAAHSSCAVTKDNFNAIGYGARLVFKICNIADCIVRNGESNRVLSVSSTIMSMSVIHGGITIQTIPVHCVFNYELCNPLRMAHVDRQKCAPGYVVSDPLPEINEYSDADVVIKNLLSAHSLHDAHEKNAFTALVRAMISDRDMQKLGGNTEADQYALIGVFLILYGPGSIKIANQENELVPKKHVDYCGKKQIMNLTRKNHDT”, the “soluble on expression in E. coli” value is on record as “not soluble”.

Turning to “MSQQEISIINLDQLVSMTSVEIAELTGKEHKHVLRDIRNMVEELNGAKTEHCSTLSSELNGSKFGLVGEEVYKDAKGESRTMYRLDRKHTFILVAGYSVHLRAKCYDHIQTLERRVLQLEDQKKRAAIQSANRRGVTWGDYCKTYGLPAQKLMTALLQHRGLFRKNPISNEWSVNPKYSDCFRIIKPSDQKFSAGGYNFRFNAKGLEVFGKPEMVDKMRGILIAFTGTDQQKQEHLLKLAQSGKVEGI”, the “soluble on expression in E. coli” value is recorded as “not soluble”. With “STKTNVVEVLNKQVANWNVLYVKLHNYHWYVTGPHFFTLHEKFEEFYNEAGTYIDELAERILALEGKPLATMKEYLATSSVNEGTSKESAEEMVQTLVNDYSALIQELKEGMEVAGEAGDATSADMLLAIHTTLEQHVWMLSAFLK”, the “soluble on expression in E. coli” value is “soluble”.

Regarding “MLRRTLHCCTAVRHTSVPSFMQHPVEMAFYFPRFHPDTHVNAAGIPELIDAVGLMTRHSRSSRAESTASASTSAAESAMSRALPPTRWTTTVSATAQPTTDASVVEAQKDNAKSLLLLERGIDILNSVGGVRNPTVANLLRPLYAARFEMLNGSEHLPRSEYAKRMHVHKAILQQAAPLLYYDAWDKSDVHQLDTSCVLVGHFMKAFCALHPRPFHPVAAPATSGGAGSSQASSTTTTASSSSSSNSNSNVTSSSSAQSTPKGAFNPAEWKMAVGDDGEGAYLTLSIVQDRVEELLRLATAAYDKHGSTHPELRWLRPKLLVLKGLLTIPLTGHLLHAQRCIEEAAHYVDALTKRTNLLLDGLKERTHEPELGLYMLLQAEIAARVFDWDVAPGQVDGDVVNMFTDAAGYYADPPNTTLDGDAIMSERKLAEQRFEVEAYACCLRSYAAFLLGASRPEATSTRDSPVFLAKQLFSLNPLLTVATSSSLIFSDVRNVSELPLDMCRRRTGEALDRALKLNRMLYPDFRQNAPAAATLMTMACMYADTRDYLYATGLFESANKAVTYNFGDTSLEHVFLQKLRYEFLAGVGSEQEAKTASHEVVHLLKRIDALPC”, the “soluble on expression in E. coli” value is given as “soluble”. On to “MSEAKWLSLLGLAARARQLLTGEEQVVKAVQNGQVTLVILSSDAGIHTKKKLLDKCGSYQIPVKVVGNRQMLGRAIGKHERVVIGVKDAGFSRKLAALIDE”, for which the “soluble on expression in E. coli” value is given as “soluble”.

With “HHHHHHSKEELLKLTETVVTEYLNSGNANEAVNGVREMRAPKHFLPEMLSKVIILSLDRSDEDKEKASSLISLLKQEGIATSDNFMQAFLNVLDQCPKLEVDIPLVKSYLAQFAARAIISELVSISELAQPLESGTHFPLFLLCLQQLAKLQDREWLTELFQQSKVNMQKMLPEIDQNKDRMLEILEGKGLSFLFPLLKLEKELLKQIKLDPSPQTIYKWIKDNISPKLHVDKGFVNILMTSFLQYISSEVNPPSDETDSSSAPSKEQLEQEKQLLLSFKPVMQKFLHDHVDLQVSALYALQVHCYNSNFPKGMLLRFFVHFYDMEIIEEEAFLAWKEDITQEFPGKGKALFQVNQWLTWLETA”, the “soluble on expression in E. coli” value is listed as “soluble”. With “LGGVAPEQVAYAVEQAGKRLQERDNAGVKVRPARLTDLDALEGMVAYWAGLGENLPRNRNELVRDIGSFAVAEHHGEVTGCASLYVYDSGLAEIRSLGVEAGWQSQGQGKAIVQHLVEKAREMAIKKVFVLTRVPEFFMKQDFIPTSRSLLPEKVLKDCDQCPRQH”, the “soluble on expression in E. coli” value is recorded as “not soluble”. Take “MRARIICGFRLVSETGSGSSSSDLTSASGASQWGNSSRSHWLKRWCASCSSAPEISNWQLSPASVSVPISARALLALPCGQCAGYATQFVMKKYYTAFQRGLPDAHVRRLEHHHHHH”: the “soluble on expression in E. coli” value is “not soluble”. “MGLTEQKQKHMEQLSDKNGIISALAFDQRGALKRLMAKYQSEEPTVSQIEALKVLVAEELTPYASSMLLDPEYGLPATKVLDDNAGLLLAYEKTGYDTSSTKRLPDCLDIWSAKRIKEEGADAVKFLLYYDVDSSDEVNEEKEAYIERIGSECVAEDIPFFLEILSYDEKITDSSGIEYAKIKPRKVIEAMKVFSNPRFNIDVLKVEVPVNMDYVEGFAQGETAYNKATAAAYFREQDQATLLPYIFLSAGVPAQLFQETLVFAKEAGAKFNGVLCGRATWAGSVKEYVEKGEAGARQWLRTIGFQNIDELNKILQKTATSWKER”: the “soluble on expression in E. coli” value is given as “not soluble”.

With “VLLLDVTPLSLGIETLGGVFTRLIPRNTTIPTKKSQIFSTAAAGQTSVEIRVFQGERELVRDNKLIGNFTLAGIPPAPKGVPQIEVTFDIDADGIINVSARDKATNKDSSITVAGSSGLSENEIEQMVNDAEKFKSQDEARKQAIETANKADQLANDTENSLKEFEGKVDKAEAQKVRDQITSLKELVARVQGGEEVNAEELKTKTEELQTSSMKLFEQLYKNDSNNNNNNNGNNAESGETKQ”, the “soluble on expression in E. coli” value is given as “soluble”. With “GVTKKLKISRTATCKGCKGLGGNEGSAKECSDCRGRGIKVRVIRMGPMVQQMQSHCDSCNGEGSTFLEKDRCKKCNGKKQVKEDEI”, the “soluble on expression in E. coli” value is recorded as “not soluble”. In the case of “MELTLESQGYLESLYRAYLEDPLSLPEDWRRYFSALTLEDLEDGRRERQAAPLPGEALDLGFLLKVEALRQAYRELGHLAARIDPLGRERPRPKALSLEAHGLSPEDLKRPLPPLFGAPTLGALLERLEATYLGPVGFEVAHVEPEERAWLLSRIEAPWPKPAPEVRRRVLRSLLQASLFEAFLQRKYLGAKTFSVEGLESLIPLLQEAVQEAARFGVREVVLGMAHRGRLNVLAHVVEKPFEAIFREFEELFPEGYVGDVKYHLGHSTDVETPWGPVHVSLNFNPSHLEFVNPVALGRVRAKQDRFGDRERKRGLAVLVHGDAAFIGEGIVQETLNLSQLPGYRVGGTLHVVANNQLGFTTLPSEYTSSRYPTDVAKMVGAPIFHVNAEALDELLFVLALALEYRSRYGKDVVIDLVGYRRRGHNETDEPTFTQPGMYALIAKKPEPWRVYAERLEAEGLVSEEELKAWQEAYLERLESEFARVKAEATPVVYSTLGGVWQGYVGGPDHLVPEADTAFPKEGLKNLLVRLSSVPEGFQVHPKLKRFLEARREMAEEKRPVDWATAEALAFATLAVEGHRVRLTGQDALRGTFTQRHAALYDYRTGERYIPLQHLAEGQAEVEIHNSPLSEAGVLGFEYGYSLDYPEGLVLWEAQFGDFVNVAQVYIDQFLASAEVKWNRLSGLVLLLPHGLEGQGPEHSSARLERFLQLAAKDNLQVAYPTTPAQFFHLLRRQVKRKIRKPLVVMTPKSLLRHPEVVSALEELAEGRFQKVIPERVKGARKVLLTSGKVYYDLLQKRKELQAEDVAILRLELLYPFPEAELQEALGAYPKKVPVVFVQEEPVNQGAWWYLSARFCGEIYGHPFSVVARPESPSPAVGSSKVHKLEQEELLEEAFR”, the “soluble on expression in E. coli” value is on record as “soluble”. On to “GMFVSDQAEAKGFIEDSSLDLLLRNYYFNRDGKSGSGDRVDWTQGFLTTYESGFTQGTVGFGVDAFGYLGLKLDGTSDKTGTGNLPVMNDGKPRDDYSRAGGAVKVRISKTMLKWGEMQPTAPVFAAGGSRLFPQTATGFQLQSSEFEGLDLEAGHFTEGKEPTTVKSRGELYATYAGETAKSADFIGGRYAITDNLSASLYGAELEDIYRQYYLNSNYTIPLASDQSLGFDFNIYRTNDEGKAKAGDISNTTWSLAAAYTLDAHTFTLAYQKVHGDQPFDYIGFGRNGSGAGGDSIFLANSVQYSDFNGPGEKSWQARYDLNLASYGVPGLTFMVRYINGKDIDGTKMSDNNVGYKNYGYGEDGKHHETNLEAKYVVQSGPAKDLSFRIRQAWHRANADQGEGDQNEFRLIVDYPLSILHHHHHHHH”, for which the “soluble on expression in E. coli” value is given as “soluble”. With “GMVRRTRAEMEETRATLLATARKVFSERGYADTSMDDLTAQASLTRGALYHHFGDKKGLLAAVVEQIDAEMDERLQAISDTAEDDWEGFRCRCRAYLEMALEPEIQRIVLRDARAVLGGASPDSQRHCVESMQRLIDNLIRQGVVAEADPQALASLIYGSLAEAAFWIAEGEDGNARLAQGVAALELLLRGLLVKPR”, the “soluble on expression in E. coli” value was “soluble”. For the sequence “MGSDKIHHHHHHMAKSSLGQDSDSTAAVAVLKRAVELDAESRYQQALVCYQEGIDMLLQVLKGTKESSKRCVLRTKISGYMDRAENIKKYLDQEKEDGKYHKQIKIEENATGFSYESLFREYLHETVTEVWIEDPYIRQTHQLYNFLRFCEMLIKKPCKVRTIHLLTSGYEGLGNTQQSSGLEEIKQSLGSHGVVLEINYSSSIHDREIRFNNGWMIKIGRGLDYFKKPQGRFSLGYYDLDLRPCHETTVDIFHNKHTKKI”, the “soluble on expression in E. coli” value is “not soluble”. The entry for “MAHHHHHHMVEEVTIGRDFVTVRRVDDDDTAAAVRQYAVRLGGNPTATPEETAERSAALQRKVMDAMEENCEQVKTLSGRNDPNESVDGGGENTEDNLGSQGGVALDSVDEAALRDLVRSTHWSELKLHVSALLTDHLYSGRAHIDADAPHPHPDTIPQDGDSEVVVVLKELISTTIRPQLQADGGDIRFVGLADSVMLVEMLGACRKCRSSKTTLRDMIERTTRHWVPEVQKVEEVER” is “not soluble”.
